{
  "source": "patent US20170202936A1",
  "about": "(VAXON BIOTECH, published 2017)",
  "data": [
    {"target": "T1, HLA-B*0702 (human)", "T1 construct": "MHC class I molecule on T2-B7 cells; also called HLA-B7", "test": "T2-B7 cells, HLA-B*0702 surface expression (ME-1 mAb); ratio to reference peptide CMV265-274 (SEQ ID NO: 9)", "description": "(§1) The protocol used has been described previously (Rohrlich et al., 2003).", "units": {"RA (relative affinity)": "ratio"}, "values": [
      {"binder": "APRCRAVRSL", "note": "[TERT4]", "RA (relative affinity)": 0.74},
      {"binder": "YPEEISSMVL (also called Hsp115)", "note": "[Hsp70 115]", "RA (relative affinity)": "> 10"},
      {"binder": "YPVTNAVITV (also called Hsp137)", "note": "[Hsp70 137 (10)]", "RA (relative affinity)": "> 10"},
      {"binder": "APRRLVQLL (TERT444 with A at position 1)", "note": "[TERT444A1]", "RA (relative affinity)": 1.4}
    ]},
    {"target": "T1, HLA-B*0702", "test": "assay not given", "values": [
      {"binder": "APKHSDCLA (Synthetic optimized peptide; Her2/neu246 with A at position 1)", "note": "[Her2/neu246A1]", "binding result": "binds"}
    ]},
    {"target": "T1, HLA-B*0702", "test": "RA grade (++ = RA < 1), T2-B7 cells, ME-1 mAb staining", "description": "as §1", "units": {"relative affinity (RA): ratio of peptide concentration to reference peptide concentration inducing 20% of HLA-B*0702 expression": "ratio"}, "values": [
      {"binder": "APRVSIRLPL", "note": "[APRVSIRLPL (SEQ ID NO: 46)]", "relative affinity (RA): ratio of peptide concentration to reference peptide concentration inducing 20% of HLA-B*0702 expression": "< 1"},
      {"binder": "APRSLGLEL", "note": "[Hsp70397R3L9]", "relative affinity (RA): ratio of peptide concentration to reference peptide concentration inducing 20% of HLA-B*0702 expression": "< 1"},
      {"binder": "APRSPLAPL (Synthetic optimized peptide; Her2/neu1069 with L at the C-terminal position)", "note": "[Her2/neu1069L9]", "relative affinity (RA): ratio of peptide concentration to reference peptide concentration inducing 20% of HLA-B*0702 expression": "< 1"},
      {"binder": "APRMHCAVDL", "note": "[APRMHCAVDL (SEQ ID NO: 45)]", "relative affinity (RA): ratio of peptide concentration to reference peptide concentration inducing 20% of HLA-B*0702 expression": "< 1"}
    ]},
    {"target": "T1, HLA-B*0702", "test": "RA grade (+ = 1 < RA < 10), T2-B7 cells, ME-1 mAb staining", "description": "as §1", "units": {"relative affinity (RA): ratio of peptide concentration to reference peptide concentration inducing 20% of HLA-B*0702 expression": "ratio"}, "values": [
      {"binder": "APRRRLGCEL", "note": "[APRRRLGCEL (SEQ ID NO: 51)]", "relative affinity (RA): ratio of peptide concentration to reference peptide concentration inducing 20% of HLA-B*0702 expression": "1 to 10"},
      {"binder": "APRTKAEML", "note": "[APRTKAEML (SEQ ID NO: 57)]", "relative affinity (RA): ratio of peptide concentration to reference peptide concentration inducing 20% of HLA-B*0702 expression": "1 to 10"},
      {"binder": "APRCRAVRSL", "note": "[TERT4]", "relative affinity (RA): ratio of peptide concentration to reference peptide concentration inducing 20% of HLA-B*0702 expression": "1 to 10"},
      {"binder": "APREISSMVL (Hsp70 115 with A at position 1 and R at position 3)", "note": "[Hsp70115A1R3]", "relative affinity (RA): ratio of peptide concentration to reference peptide concentration inducing 20% of HLA-B*0702 expression": "1 to 10"},
      {"binder": "APREYVNAL", "note": "[APREYVNAL (SEQ ID NO: 47)]", "relative affinity (RA): ratio of peptide concentration to reference peptide concentration inducing 20% of HLA-B*0702 expression": "1 to 10"},
      {"binder": "APRPWTPCL", "note": "[APRPWTPCL (SEQ ID NO: 52)]", "relative affinity (RA): ratio of peptide concentration to reference peptide concentration inducing 20% of HLA-B*0702 expression": "1 to 10"},
      {"binder": "APRALVETL", "note": "[APRALVETL (SEQ ID NO: 49)]", "relative affinity (RA): ratio of peptide concentration to reference peptide concentration inducing 20% of HLA-B*0702 expression": "1 to 10"},
      {"binder": "APRRLVQLL (TERT444 with A at position 1)", "note": "[TERT444A1]", "relative affinity (RA): ratio of peptide concentration to reference peptide concentration inducing 20% of HLA-B*0702 expression": "1 to 10"}
    ]}
  ]
}
